Test results: paper PMC4515589, “In vitro analysis of phosphorothioate modification of DNA reveals substrate recognition by a multiprotein complex” (Scientific Reports, 2015)

Target: the molecule itself
Assay: SEC + other: densitometry of SDS-PAGE bands; ~600 kDa gel filtration fraction of the DptC/D/E complex resolved on Coomassie-stained SDS-PAGE, bands quantified by ImageJ and normalised by molecular mass; copy number worked out from the ~600 kDa mass and the equimolar amounts

B1: DptE (S. enterica serovar Cerro 87) (natural protein)
chain: MLPNRMVLSRQTEDQLKKLKGYTGITPNVAARLAFFRSVESEFRYSPERDSKKLDGSLVLDKITWLGETLQATELVLKMLYPQLEQKILIKAWAAHVDDGIAALRNYRSLKDFSKNI
notes: DptE (13 kDa), phosphorothioate-modifying protein of Salmonella enterica serovar Cerro 87; expressed from the coding region of the dptC/D/E operon; also called PT-modifying protein E; source: E. coli BL21 (DE3), co-overexpressed with His-DptC and DptD from pET-28a(+); in lysate, then co-purified with His-DptC (nickel column, gel filtration)
- stoichiometry N: 4

B2: DptD (S. enterica serovar Cerro 87) (enzyme)
chain: MRANRLCLSMRKMNVLIKQLVLHNFRVFCGTHTIDLAPRKRPHEVNPRPIVLFGGLNGAGKTSILSAIRLALYGRLAFGPAMQQQEYVEQLGALVHNGTYTAERPDEAAVELTFTYNQNGHETEFTVTRSWKKGKKDRLSLQQDGQPRSELSYDQCQGFLNELIPHGVADLFFFDGEKIAELAEDESGNILRTAVRRLLGLDLIARLQNDLMIFIKRQQTAQLGGSQQQQVEALEAKIKTLAGQAEKLLEEADFVNSRIEFLSQDIIRHEGLLNAQGGAFAQTKAQEKQKVETLLKEKERLEKALRQECDGSLPYALAPNTLSRLLEKIANEAQIKQAKIFETELNQFLTQLKNDIAFRSSSESSTRAIATEAITNNLDAYMATKPKGDLLFDISEREAGMLQQSIEQDSKKAWQRFDMYRHQLADIEQQLEQAAANIARAPEDEQLMDLFAALRDLDHKREKQRQKYRSLLEEAKRTKQQQLDCVRQVQKAHDITRSQHGLSSAFKNAQETINLLDYYSNVLTQARVKKLSANFEIAYHKLARKEDLQLNAHINPQTFDVELVDEKGSVINRKLLSAGEKQIYAIAILEALAKTSGRDFPVIIDTPLGRLDSQHRDKLINHYFPEASHQVVLLSTDTEVDERYFVDRLRDDISHAYEIVFNAHTKSSALKPGYFWELTKEAV
notes: DptD (77 kDa), phosphorothioate-modifying protein of Salmonella enterica serovar Cerro 87; expressed from the coding region of the dptC/D/E operon; also called PT-modifying protein D; source: E. coli BL21 (DE3), co-overexpressed with His-DptC and DptE from pET-28a(+); in lysate, then co-purified with His-DptC (nickel column, gel filtration)
- stoichiometry N: 4

B3: DptC with N-terminal His-tag (S. enterica serovar Cerro 87) (enzyme)
chain: MSKLVQAYDLAEYEDFINQEQFAGRPLAEYVAEVQRIYCADKRPWVIGYSGGKDSSAVITLVYLALLGLPPEMRSKDVFIVSSDTLVETPVVVDLIKKTMLQIEAGAKRNGLPITQHAVTPKTNETFWVNLLGKGYPAPTRSFRWCTERMKINPVSDFIKDKVSQFDEVIVVLGSRSSESASRAQVIAKHKIDGSRLARHTTLANAFIYTPIDTWDVEDVWKLLRGAFRYAPEDIDEWESPWGGNNRPLWTLYMDSSAQGECPLVIDESTPSCGNSRFGCWTCTVVTKDKAMESLIKNGEEWMSPLLKYRDLLAFTTDPANKDTYRNYKRRTGKVSYQYAKDGEDRSAERKHVPGPYWLKYRQQWLKDLLEIERDLNAQGHTITLITQPELHAIRQEWLKDPNEPDWHDTLPEIYREVYQQDLNWVVDDQSRFDASDADLLAQITQGFDVVPEMVMKLIELETSMEGLSRRQGIFDKLGTILKQDWGSLEEIQQQQATLQKRNDRDIHQDEVEKLEAELQTLQRRIIDAGESSVLIDEENERAH
notes: DptC, phosphorothioate-modifying protein of Salmonella enterica serovar Cerro 87; coding region of the dptC/D/E operon amplified from genomic DNA; the upstream primer begins at the ATG of dptC; also called His-Tag labeled DptC; labelled DptC; source: E. coli BL21 (DE3), co-overexpressed with DptD and DptE from pET-28a(+); in lysate, then purified (nickel HiTrap chelating column, Superdex gel …)
- stoichiometry N: 4
